Assay results published in the supplement of paper PMC11246515.
± gives the standard deviation of the averaged measurements.

Assay: total protein half-life in vivo (active degradation + dilution); higher = more stable protein
[1] = E. coli NCM3722 delta-clpP delta-lon delta-hslV, growth: N-lim chemostat, doubling time 6 h
[2] = E. coli NCM3722 delta-clpP, growth: N-lim chemostat, doubling time 6 h
[3] = E. coli NCM3722 delta-hslV, growth: N-lim chemostat, doubling time 6 h
[4] = E. coli NCM3722 delta-lon, growth: N-lim chemostat, doubling time 6 h
[5] = E. coli NCM3722 delta-smpB, growth: N-lim chemostat, doubling time 6 h
[6] = wild type E. coli NCM3722, growth: C-lim chemostat, doubling time 3 h
[7] = wild type E. coli NCM3722, growth: C-lim chemostat, doubling time 6 h
[8] = wild type E. coli NCM3722, growth: C-lim chemostat, doubling time 12 h
[9] = wild type E. coli NCM3722, growth: N-lim chemostat, doubling time 6 h
[10] = wild type E. coli NCM3722, growth: N-lim chemostat, doubling time 12 h
[11] = wild type E. coli NCM3722, growth: P-lim chemostat, doubling time 6 h
[12] = wild type E. coli NCM3722, growth: P-lim chemostat, doubling time 12 h

Sequence | total protein half-life in vivo [1] [h] | total protein half-life in vivo [2] [h] | total protein half-life in vivo [3] [h] | total protein half-life in vivo [4] [h] | total protein half-life in vivo [5] [h] | total protein half-life in vivo [6] [h] | total protein half-life in vivo [7] [h] | total protein half-life in vivo [8] [h] | total protein half-life in vivo [9] [h] | total protein half-life in vivo [10] [h] | total protein half-life in vivo [11] [h] | total protein half-life in vivo [12] [h]
MKTERILGALYGQALGDAMGMPSELWPRSRVKAHFGWIDRFLPGPKENNAACYFNRAEFTDDTSMALCLADALLEREGKIDPDLIGRNILDWALRFDAFNKNVLGPTSKIALNAIRDGKPVAELENNGVTNGAAMRVSPLGCLLPARDVDSFIDDVALASSPTHKSDLAVAGAVVIAWAISRAIDGESWSAIVDSLPSIARHAQQKRITTFSASLAARLEIALKIVRNADGTESASEQLYQVVGAGTSTIESVPCAIALVELAQTDPNRCAVLCANLGGDTDTIGAMATAICGALHGVNAIDPALKAELDAVNQLDFNRYATALAKYRQQREAV | 4.09 ± 0.27 | 3.33 ± 0.15 | 3.21 ± 0.037 | 3.64 ± 0.55 | 3.4389 ± 0.00072 | 2.89 ± 0.35 | 5.04 ± 0.58 | 9.45 ± 0.66 | 3.36 ± 0.19 | 4.91 ± 0.38 | 5.45 ± 0.4 | 10.4 ± 0.37
MANYFNTLNLRQQLAQLGKCRFMGRDEFADGASYLQGKKVVIVGCGAQGLNQGLNMRDSGLDISYALRKEAIAEKRASWRKATENGFKVGTYEELIPQADLVINLTPDKQHSDVVRTVQPLMKDGAALGYSHGFNIVEVGEQIRKDITVVMVAPKCPGTEVREEYKRGFGVPTLIAVHPENDPKGEGMAIAKAWAAATGGHRAGVLESSFVAEVKSDLMGEQTILCGMLQAGSLLCFDKLVEEGTDPAYAEKLIQFGWETITEALKQGGITLMMDRLSNPAKLRAYALSEQLKEIMAPLFQKHMDDIISGEFSSGMMADWANDDKKLLTWREETGKTAFETAPQYEGKIGEQEYFDKGVLMIAMVKAGVELAFETMVDSGIIEESAYYESLHELPLIANTIARKRLYEMNVVISDTAEYGNYLFSYACVPLLKPFMAELQPGDLGKAIPEGAVDNGQLRDVNEAIRSHAIEQVGKKLRGYMTDMKRIAVAG | 3.97 ± 0.51 | 3.59 ± 0.64 | 3.31 ± 0.22 | 3.72 ± 0.042 | 3.46 ± 0.06 | 3.035 ± 0.013 | 5.6 ± 0.11 | 10.3 ± 0.33 | 3.472 ± 0.017 | 5.36 ± 0.15 | 5.67 ± 0.26 | 11.9 ± 0.2
MDSARALIARGWGVSLVSRCLRVSRAQLHVILRRTDDWMDGRRSRHTDDTDVLLRIHHVIGELPTYGYRRVWALLRRQAELDGMPAINAKRVYRIMRQNALLLERKPAVPPSKRAHTGRVAVKESNQRWCSDGFEFCCDNGERLRVTFALDCCDREALHWAVTTGGFNSETVQDVMLGAVERRFGNDLPSSPVEWLTDNGSCYRANETRQFARMLGLEPKNTAVRSPESNGIAESFVKTIKRDYISIMPKPDGLTAAKNLAEAFEHYNEWHPHSALGYRSPREYLRQRACNGLSDNRCLEI [P0CF53] | 5.39 ± 1.7 |  |  |  |  |  |  |  |  |  |  | 
MSRPRRRGRDINGVLLLDKPQGMSSNDALQKVKRIYNANRAGHTGALDPLATGMLPICLGEATKFSQYLLDSDKRYRVIARLGQRTDTSDADGQIVEERPVTFSAEQLAAALDTFRGDIEQIPSMYSALKYQGKKLYEYARQGIEVPREARPITVYELLFIRHEGNELELEIHCSKGTYIRTIIDDLGEKLGCGAHVIYLRRLAVSKYPVERMVTLEHLRELVEQAEQQDIPAAELLDPLLMPMDSPASDYPVVNLPLTSSVYFKNGNPVRTSGAPLEGLVRVTEGENGKFIGMGEIDDEGRVAPRRLVVEYPA | 5.81 ± 0.72 | 4.93 ± 0.41 | 4.51 ± 0.27 | 4.83 ± 0.34 | 4.29 ± 0.17 | 3.06 ± 0.59 | 5.2 ± 0.55 | 9.72 ± 0.41 | 4.89 ± 0.18 | 7.6476 ± 0.0051 | 5.59 ± 0.17 | 12.2 ± 2.5
MQRRDFLKYSVALGVASALPLWSRAVFAAERPTLPIPDLLTTDARNRIQLTIGAGQSTFGGKTATTWGYNGNLLGPAVKLQRGKAVTVDIYNQLTEETTLHWHGLEVPGEVDGGPQGIIPPGGKRSVTLNVDQPAATCWFHPHQHGKTGRQVAMGLAGLVVIEDDEILKLMLPKQWGIDDVPVIVQDKKFSADGQIDYQLDVMTAAVGWFGDTLLTNGAIYPQHAAPRGWLRLRLLNGCNARSLNFATSDNRPLYVIASDGGLLPEPVKVSELPVLMGERFEVLVEVNDNKPFDLVTLPVSQMGMAIAPFDKPHPVMRIQPIAISASGALPDTLSSLPALPSLEGLTVRKLQLSMDPMLDMMGMQMLMEKYGDQAMAGMDHSQMMGHMGHGNMNHMNHGGKFDFHHANKINGQAFDMNKPMFAAAKGQYERWVISGVGDMMLHPFHIHGTQFRILSENGKPPAAHRAGWKDTVKVEGNVSEVLVKFNHDAPKEHAYMAHCHLLEHEDTGMMLGFTV |  | 5.63 ± 0.14 | 6.68 ± 0.32 | 6.57 ± 0.91 | 5.62 ± 0.1 | 2.84 ± 0.38 | 5.977 ± 0.041 | 11.2 ± 1.3 | 5.944 ± 0.022 | 13.8 ± 1 | 5.657 ± 0.043 | 14.4 ± 1.6
MHSQIWVVSTLLISIVLIVLTIVKFKFHPFLALLLASFFVGTMMGMGPLDMVNAIESGIGGTLGFLAAVIGLGTILGKMMEVSGAAERIGLTLQRCRWLSVDVIMVLVGLICGITLFVEVGVVLLIPLAFSIAKKTNTSLLKLAIPLCTALMAVHCVVPPHPAALYVANKLGADIGSVIVYGLLVGLMASLIGGPLFLKFLGQRLPFKPVPTEFADLKVRDEKTLPSLGATLFTILLPIALMLVKTIAELNMARESGLYILVEFIGNPITAMFIAVFVAYYVLGIRQHMSMGTMLTHTENGFGSIANILLIIGAGGAFNAILKSSSLADTLAVILSNMHMHPILLAWLVALILHAAVGSATVAMMGATAIVAPMLPLYPDISPEIIAIAIGSGAIGCTIVTDSLFWLVKQYCGATLNETFKYYTTATFIASVVALAGTFLLSFII |  |  |  |  | 4.91 |  | 5.8 | 11.9 |  | 9.38 |  | 
MQVLPPSSTGGPSRLFIMRPVATTLLMVAILLAGIIGYRALPVSALPEVDYPTIQVVTLYPGASPDVMTSAVTAPLERQFGQMSGLKQMSSQSSGGASVITLQFQLTLPLDVAEQEVQAAINAATNLLPSDLPNPPVYSKVNPADPPIMTLAVTSTAMPMTQVEDMVETRVAQKISQISGVGLVTLSGGQRPAVRVKLNAQAIAALGLTSETVRTAITGANVNSAKGSLDGPSRAVTLSANDQMQSAEEYRQLIIAYQNGAPIRLGDVATVEQGAENSWLGAWANKEQAIVMNVQRQPGANIISTADSIRQMLPQLTESLPKSVKVTVLSDRTTNIRASVDDTQFELMMAIALVVMIIYLFLRNIPATIIPGVAVPLSLIGTFAVMVFLDFSINNLTLMALTIATGFVVDDAIVVIENISRYIEKGEKPLAAALKGAGEIGFTIISLTFSLIAVLIPLLFMGDIVGRLFREFAITLAVAILISAVVSLTLTPMMCARMLSQESLRKQNRFSRASEKMFDRIIAAYGRGLAKVLNHPWLTLSVALSTLLLSVLLWVFIPKGFFPVQDNGIIQGTLQAPQSSSFANMAQRQRQVADVILQDPAVQSLTSFVGVDGTNPSLNSARLQINLKPLDERDDRVQKVIARLQTAVDKVPGVDLFLQPTQDLTIDTQVSRTQYQFTLQATSLDALSTWVPQLMEKLQQLPQLSDVSSDWQDKGLVAYVNVDRDSASRLGISMADVDNALYNAFGQRLISTIYTQANQYRVVLEHNTENTPGLAALDTIRLTSSDGGVVPLSSIAKIEQRFAPLSINHLDQFPVTTISFNVPDNYSLGDAVQAIMDTEKTLNLPVDITTQFQGSTLAFQSALGSTVWLIVAAVVAMYIVLGILYESFIHPITILSTLPTAGVGALLALLIAGSELDVIAIIGIILLIGIVKKNAIMMIDFALAAEREQGMSPREAIYQACLLRFRPILMTTLAALLGALPLMLSTGVGAELRRPLGIGMVGGLIVSQVLTLFTTPVIYLLFDRLALWTKSRFARHEEEA | 6.53 ± 0.31 | 6.24 ± 0.12 | 6.58 ± 0.74 | 6.07 ± 0.56 | 5.45 ± 0.45 | 2.98 | 6.17 ± 0.74 |  | 6.15 ± 0.94 | 13.1 ± 0.4 | 7.07 ± 0.49 | 12.347 ± 0.0014
MTNNDTTLQLSSVLNRECTRSRVHCQSKKRALEIISELAAKQLSLPPQVVFEAILTREKMGSTGIGNGIAIPHGKLEEDTLRAVGVFVQLETPIAFDAIDNQPVDLLFALLVPADQTKTHLHTLSLVAKRLADKTICRRLRAAQSDEELYQIITDTEGTPDEA | 4.58 ± 0.29 | 3.48 ± 2.9 | 5.17 ± 0.097 | 5.82 | 3.01 ± 0.57 | 2.46 ± 0.65 | 5.18 ± 1.6 | 9.11 ± 5.2 | 3.79 | 5.69 ± 0.31 | 3.46 ± 1.9 | 8.38 ± 1.6
